Measured values: publication doi:10.1101/2022.11.04.515170

T1: GFP-SNX4, O95219
T1 chain: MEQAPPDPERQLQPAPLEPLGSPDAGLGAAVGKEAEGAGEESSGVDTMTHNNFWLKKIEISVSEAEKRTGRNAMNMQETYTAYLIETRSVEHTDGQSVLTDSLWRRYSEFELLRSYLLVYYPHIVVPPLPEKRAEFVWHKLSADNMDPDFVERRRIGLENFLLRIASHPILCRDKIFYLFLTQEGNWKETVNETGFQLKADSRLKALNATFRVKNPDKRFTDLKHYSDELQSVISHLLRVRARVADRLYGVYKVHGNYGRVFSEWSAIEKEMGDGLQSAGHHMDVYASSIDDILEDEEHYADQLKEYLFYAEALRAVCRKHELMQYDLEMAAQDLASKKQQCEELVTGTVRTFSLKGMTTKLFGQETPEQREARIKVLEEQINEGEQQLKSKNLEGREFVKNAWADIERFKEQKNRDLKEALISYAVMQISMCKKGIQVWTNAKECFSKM


What was measured:
[1] = biological target: GFP-SNX4 (UniProt O95219); experiment: co-IP
[2] = biological target: T1, GFP-SNX4, O95219; experiment: co-IP; details: remark: other sources report otherwise

ratio of HA to GFP band intensity [1] | ratio of HA to GFP band intensity [2] | Molecule
0.65 | – | HA-SNX32 A226E (from UniProt Q86XE0 1-403) (natural protein)
– | 0.92 | HA-SNX32 FL, Q86XE0 1-403 (natural protein) METYAEVGKEGKPSCASVDLQGDSSLQVEISDAVSERDKVKFTVQTKSCLPHFAQTEFSVVRQHEEFIWLHDAYVENEEYAGLIIPPAPPRPDFEASREKLQKLGEGDSSVTREEFAKMKQELEAEYLAIFKKTVAMHEVFLQRLAAHPTLRRDHNFFVFLEYGQDLSVRGKNRKELLGGFLRNIVKSADEALITGMSGLKEVDDFFEHERTFLLEYHTRIRDACLRADRVMRAHKCLADDYIPISAALSSLGTQEVNQLRTSFLKLAELFERLRKLEGRVASDEDLKLSDMLRYYMRDSQAAKDLLYRRLRALADYENANKALDKARTRNREVRPAESHQQLCCQRFERLSDSAKQELMDFKSRRVSSFRKNLIELAELELKHAKASTLILRNTLVALKGEP
